Results reported in patent publication US20230265151A1, “GIP/GLP1 CO-AGONIST COMPOUNDS” (priority 2020, published 2023).
*1 amine or outer side, *2 acyl side, *3 side chain or, on linkers, in order; H or OH if unused. Where no end group is shown, it is not given here. Side-chain parts run from the residue outwards. [ ]: non-standard residue; d: D form. The star is where a group is joined. Butanoyl(4-(4-tBuPh)) = CC(C)(C)c1ccc(CCCC(=O)*)cc1; αMePhe(2-F) = C[C@](N)(Cc1ccccc1F)C(=O)O; γGlu = O=C(O)[C@H](CCC(=O)[*:2])N[*:1]; C14 diacid = O=C(O)CCCCCCCCCCCCC(=O)*; αMeY = C[C@](N)(Cc1ccc(O)cc1)C(=O)O; αMeF = C[C@](N)(Cc1ccccc1)C(=O)O; αMeL = CC(C)C[C@](C)(N)C(=O)O; Lauroyl = CCCCCCCCCCCC(=O)*; Orn = NCCC[C@H](N)C(=O)O; AEEA = NCCOCCOCC(=O)O; Aib = CC(C)(N)C(=O)O

T1: human glucose-dependent insulinotropic polypeptide (GIP) receptor (human, UniProt P48546 22-466)
T1 sequence (looked up): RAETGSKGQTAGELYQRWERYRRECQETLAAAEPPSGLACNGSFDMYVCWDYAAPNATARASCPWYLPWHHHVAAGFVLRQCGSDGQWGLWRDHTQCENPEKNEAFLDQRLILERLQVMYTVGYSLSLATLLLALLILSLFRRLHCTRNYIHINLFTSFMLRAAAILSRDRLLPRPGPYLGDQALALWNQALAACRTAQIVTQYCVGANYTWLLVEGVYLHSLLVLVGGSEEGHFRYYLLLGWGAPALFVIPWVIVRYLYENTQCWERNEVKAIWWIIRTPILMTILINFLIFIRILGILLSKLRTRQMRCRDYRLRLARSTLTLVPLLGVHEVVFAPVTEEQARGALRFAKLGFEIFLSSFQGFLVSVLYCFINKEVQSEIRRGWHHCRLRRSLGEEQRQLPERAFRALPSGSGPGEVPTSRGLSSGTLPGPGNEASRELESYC

B1: Y-Aib-EGT-αMeF(2F)-TSD-4Pal-SI-αMeL-LD-Orn-K((2-[2-(2-Amino-ethoxy)-ethoxy]-acetyl)2-(γ-Glu)-(4-(4-iodophenyl)butanoyl))AQ-Aib-EFI-(D-Glu)-αMeY-LIEGGK((2-[2-(2- … (peptide)
peptide: YXEGTXTSDXSIXLDXKAQXEFIXXLIEGGKSSGAPPPS
modifications: Aib2, αMeF(2F)6, 4Pal10, αMeL13, Orn16, Aib20, D-Glu24, αMeY25; acylated K17, K31 (groups as in name); C-terminal amide
B2: Y-Aib-EGT-αMeF(2F)-TSD-4Pal-SI-αMeL-LD-Orn-K((2-[2-(2-Amino-ethoxy)-ethoxy]-acetyl)2-CO-(CH2)12-CO2H)AQ-Aib-EFI-(D-Glu)-αMeY-LIEGGK((2-[2-(2-Amino-ethoxy)-ethox … (peptide)
peptide: YXEGTXTSDXSIXLDXKAQXEFIXXLIEGGKSSGAPPPS
modifications: Aib2, αMeF(2F)6, 4Pal10, αMeL13, Orn16, Aib20, D-Glu24, αMeY25; acylated K17, K31 (groups as in name); C-terminal amide
B3: Y-Aib-EGT-αMeF(2F)-TSD-4Pal-SI-αMeL-LD-Orn-K((2-[2-(2-Amino-ethoxy)-ethoxy]-acetyl)2-(γ-Glu)-(10-(4-carboxyphenoxy)decanoyl))AQ-Aib-EFI-(D-Glu)-αMeY-LIEGGK((2-[ … (peptide)
peptide: YXEGTXTSDXSIXLDXKAQXEFIXXLIEGGKSSGAPPPS
modifications: Aib2, αMeF(2F)6, 4Pal10, αMeL13, Orn16, Aib20, D-Glu24, αMeY25; acylated K17, K31 (groups as in name); C-terminal amide
B4: Y-Aib-EGT-αMeF(2F)-TSD-4Pal-SI-αMeL-LD-Orn-K((2-[2-(2-Amino-ethoxy)-ethoxy]-acetyl)2-(γ-Glu)-CO-(CH2)10-CO2H)AQ-Aib-EFI-(D-Glu)-αMeY-LIEGGK((2-[2-(2-Amino-ethox … (peptide)
peptide: YXEGTXTSDXSIXLDXKAQXEFIXXLIEGGKSSGAPPPS
modifications: Aib2, αMeF(2F)6, 4Pal10, αMeL13, Orn16, Aib20, D-Glu24, αMeY25; acylated K17, K31 (groups as in name); C-terminal amide
B5: Y-Aib-EGT-αMeF(2F)-TSD-4Pal-SI-αMeL-LD-Orn-K((2-[2-(2-Amino-ethoxy)-ethoxy]-acetyl)2-(10-(4-carboxyphenoxy)decanoyl))AQ-Aib-EFI-(D-Glu)-αMeY-LIEGGK((2-[2-(2-Ami … (peptide)
peptide: YXEGTXTSDXSIXLDXKAQXEFIXXLIEGGKSSGAPPPS
modifications: Aib2, αMeF(2F)6, 4Pal10, αMeL13, Orn16, Aib20, D-Glu24, αMeY25; acylated K17, K31 (groups as in name); C-terminal amide
B6: Example 175 (peptide)
peptide: Y[Aib]EGT[αMePhe(2-F)]TSDV[Aib]I[αMeL]LD[Orn]K([AEEA-AEEA-γGlu-Lauroyl])AQ[Aib]EFI[dE][αMeY]LIEGGK([AEEA-AEEA-γGlu-Lauroyl])SSGAPPPS-NH2
modifications: N-terminus assumed
SMILES: CCCCCCCCCCCC(=O)N[C@@H](CCC(=O)NCCOCCOCC(=O)NCCOCCOCC(=O)NCCCC[C@H](NC(=O)CNC(=O)CNC(=O)[C@H](CCC(=O)O)NC(=O)[C@@H](NC(=O)[C@H](CC(C)C)NC(=O)[C@](C)(Cc1ccc(O)cc1)NC(=O)[C@@H](CCC(=O)O)NC(=O)[C@@H](NC(=O)[C@H](Cc1ccccc1)NC(=O)[C@H](CCC(=O)O)NC(=O)C(C)(C)NC(=O)[C@H](CCC(N)=O)NC(=O)[C@H](C)NC(=O)[C@H](CCCCNC(=O)COCCOCCNC(=O)COCCOCCNC(=O)CC[C@H](NC(=O)CCCCCCCCCCC)C(=O)O)NC(=O)[C@H](CCCN)NC(=O)[C@H](CC(=O)O)NC(=O)[C@H](CC(C)C)NC(=O)[C@](C)(CC(C)C)NC(=O)[C@@H](NC(=O)C(C)(C)NC(=O)[C@@H](NC(=O)[C@H](CC(=O)O)NC(=O)[C@H](CO)NC(=O)[C@@H](NC(=O)[C@](C)(Cc1ccccc1F)NC(=O)[C@@H](NC(=O)CNC(=O)[C@H](CCC(=O)O)NC(=O)C(C)(C)NC(=O)[C@@H](N)Cc1ccc(O)cc1)[C@@H](C)O)[C@@H](C)O)C(C)C)[C@@H](C)CC)[C@@H](C)CC)[C@@H](C)CC)C(=O)N[C@@H](CO)C(=O)N[C@@H](CO)C(=O)NCC(=O)N[C@@H](C)C(=O)N1CCC[C@H]1C(=O)N1CCC[C@H]1C(=O)N1CCC[C@H]1C(=O)N[C@@H](CO)C(N)=O)C(=O)O
B7: Example 178 (peptide)
peptide: Y[Aib]EGT[αMeF]TSDV[Aib]I[αMeL]LD[Orn]K([AEEA-AEEA-γGlu-Butanoyl(4-(4-tBuPh))])AQ[Aib]EFI[dE][αMeY]LIEGGK([AEEA-AEEA-γGlu-Butanoyl(4-(4-tBuPh))])SSGAPPPS-NH2
modifications: N-terminus assumed
SMILES: CC[C@H](C)[C@H](NC(=O)[C@H](CC(C)C)NC(=O)[C@](C)(Cc1ccc(O)cc1)NC(=O)[C@@H](CCC(=O)O)NC(=O)[C@@H](NC(=O)[C@H](Cc1ccccc1)NC(=O)[C@H](CCC(=O)O)NC(=O)C(C)(C)NC(=O)[C@H](CCC(N)=O)NC(=O)[C@H](C)NC(=O)[C@H](CCCCNC(=O)COCCOCCNC(=O)COCCOCCNC(=O)CC[C@H](NC(=O)CCCc1ccc(C(C)(C)C)cc1)C(=O)O)NC(=O)[C@H](CCCN)NC(=O)[C@H](CC(=O)O)NC(=O)[C@H](CC(C)C)NC(=O)[C@](C)(CC(C)C)NC(=O)[C@@H](NC(=O)C(C)(C)NC(=O)[C@@H](NC(=O)[C@H](CC(=O)O)NC(=O)[C@H](CO)NC(=O)[C@@H](NC(=O)[C@](C)(Cc1ccccc1)NC(=O)[C@@H](NC(=O)CNC(=O)[C@H](CCC(=O)O)NC(=O)C(C)(C)NC(=O)[C@@H](N)Cc1ccc(O)cc1)[C@@H](C)O)[C@@H](C)O)C(C)C)[C@@H](C)CC)[C@@H](C)CC)C(=O)N[C@@H](CCC(=O)O)C(=O)NCC(=O)NCC(=O)N[C@@H](CCCCNC(=O)COCCOCCNC(=O)COCCOCCNC(=O)CC[C@H](NC(=O)CCCc1ccc(C(C)(C)C)cc1)C(=O)O)C(=O)N[C@@H](CO)C(=O)N[C@@H](CO)C(=O)NCC(=O)N[C@@H](C)C(=O)N1CCC[C@H]1C(=O)N1CCC[C@H]1C(=O)N1CCC[C@H]1C(=O)N[C@@H](CO)C(N)=O
B8: Example 180 (peptide)
peptide: Y[Aib]EGT[αMeF]TSDV[Aib]I[αMeL]LD[Orn]K([AEEA-AEEA-γGlu-C14 diacid])AQ[Aib]EFI[dE][αMeY]LIEGGK([AEEA-AEEA-γGlu-C14 diacid])SSGAPPPS-NH2
modifications: N-terminus assumed
SMILES: CC[C@H](C)[C@H](NC(=O)[C@H](CC(C)C)NC(=O)[C@](C)(Cc1ccc(O)cc1)NC(=O)[C@@H](CCC(=O)O)NC(=O)[C@@H](NC(=O)[C@H](Cc1ccccc1)NC(=O)[C@H](CCC(=O)O)NC(=O)C(C)(C)NC(=O)[C@H](CCC(N)=O)NC(=O)[C@H](C)NC(=O)[C@H](CCCCNC(=O)COCCOCCNC(=O)COCCOCCNC(=O)CC[C@H](NC(=O)CCCCCCCCCCCCC(=O)O)C(=O)O)NC(=O)[C@H](CCCN)NC(=O)[C@H](CC(=O)O)NC(=O)[C@H](CC(C)C)NC(=O)[C@](C)(CC(C)C)NC(=O)[C@@H](NC(=O)C(C)(C)NC(=O)[C@@H](NC(=O)[C@H](CC(=O)O)NC(=O)[C@H](CO)NC(=O)[C@@H](NC(=O)[C@](C)(Cc1ccccc1)NC(=O)[C@@H](NC(=O)CNC(=O)[C@H](CCC(=O)O)NC(=O)C(C)(C)NC(=O)[C@@H](N)Cc1ccc(O)cc1)[C@@H](C)O)[C@@H](C)O)C(C)C)[C@@H](C)CC)[C@@H](C)CC)C(=O)N[C@@H](CCC(=O)O)C(=O)NCC(=O)NCC(=O)N[C@@H](CCCCNC(=O)COCCOCCNC(=O)COCCOCCNC(=O)CC[C@H](NC(=O)CCCCCCCCCCCCC(=O)O)C(=O)O)C(=O)N[C@@H](CO)C(=O)N[C@@H](CO)C(=O)NCC(=O)N[C@@H](C)C(=O)N1CCC[C@H]1C(=O)N1CCC[C@H]1C(=O)N1CCC[C@H]1C(=O)N[C@@H](CO)C(N)=O

How the values were obtained:
Assay in all cases: cell-based or functional assay
human glucagon receptor = human glucagon receptor (human, UniProt P47871 26-477)
[1] = molecular target: T1, human glucose-dependent insulinotropic …
[2] = molecular target: human glucagon-like peptide-1 (GLP-1) receptor (human, UniProt P43220 24-463)

Binder | cAMP EC50 (1.0% HSA) (human glucagon receptor) | cAMP EC50 [1] | cAMP Emax [1] | cAMP EC50 [2] | cAMP Emax [2]
B1 | > 9950 nM | – | – | – | –
B2 | > 9950 nM | – | – | – | –
B3 | > 9950 nM | – | – | – | –
B4 | > 9950 nM | – | – | – | –
B5 | > 9950 nM | – | – | – | –
B6 | – | 0.0337 nM | 100% | 0.227 nM | 91.1%
B7 | – | 0.11 nM | 105% | 0.22 nM | –
B8 | – | 0.224 nM | 86.8% | 0.26 nM | –
